In patent publication US20060035265A1 one finds Signal (cpm) data, which are given here for 2 substances.

Assay [1] addresses FLAG-ZIgA fusion protein. Kind of assay: scintillation counting of beads after mixing with 35S-labelled transcription/translation mix; negative control without antibody.
Assay [2] addresses FLAG-Zwt fusion protein. Described as above.
In assay [3] the target is FLAG-ZIgA fusion protein. Kind of assay: scintillation counting of antibody-coated beads after mixing with 35S-labelled transcription/translation mix.
Assay [4] concerns the target FLAG-Zwt fusion protein. The description is as above.

Regarding “streptavidin on native streptavidin (SA) beads (M-280-SA Dynabeads) (from UniProt P22629 37-163)”, the Signal (cpm) was 5960 cpm with FLAG-ZIgA fusion protein [1] and 4860 cpm with FLAG-Zwt fusion protein [2].

On to “biotinylated anti-FLAG BioM5 monoclonal antibody (Sigma prod no. F-2922)”, for which the Signal (cpm) is 43700 cpm with FLAG-ZIgA fusion protein [3] and 35000 cpm with FLAG-Zwt fusion protein [4].
